Measured values taken from US20240158497A1 (published 2024).

B1: MAb16636 (antibody, V domains shown)
VH: QLQLQESGPGLVKPSETLSLICTVSGGSISSNNYYWGWIRQPPGKGLEWIGNLYGSGSTYYNPSLKSRVTISVDTSKNQFSLKLSFVTAADTAVYHCARWDTNGGAFDIWGQGTMVTVSS
VL: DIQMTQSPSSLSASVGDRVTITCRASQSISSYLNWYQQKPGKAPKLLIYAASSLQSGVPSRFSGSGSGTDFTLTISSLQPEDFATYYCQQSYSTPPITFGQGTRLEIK
notes: captured through anti-human Fc
B2: MAb16637 (antibody, V domains shown)
VH: QVQLVQSGAEVKKPGASVKVSCKASGYTFTSLGISWVRQAPGQGLEWMGWISAYSGNRDYAQKFQGRVTMTTDTSTSTAYMELRSLRSDDTAVYYCARSLRFDYWGQGTLVTVSS
VL: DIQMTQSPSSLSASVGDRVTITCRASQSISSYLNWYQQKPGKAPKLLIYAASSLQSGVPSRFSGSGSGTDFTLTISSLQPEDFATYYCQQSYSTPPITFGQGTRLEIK
notes: as for B1
B3: MAb16656 (antibody, V domains shown)
VH: EVQLVESGGGLVQPGRSLRLSCAASGFTLDDFAMHWVRQAPGKGLEWVSGISWNSGNIGYADSVKGRFTISRDNARNSLYLQMNSLRAEDTALYYCTSGYYLYYAMDVWGQGTTVTVSS
VL: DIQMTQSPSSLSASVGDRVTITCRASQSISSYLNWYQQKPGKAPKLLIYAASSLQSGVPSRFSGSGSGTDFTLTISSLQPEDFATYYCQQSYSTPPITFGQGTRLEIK
notes: as for B1
B4: MAb16659 (antibody, V domains shown)
VH: QVQLVQSGPEVKKPGSSVKVSCKASGGTIDRNEITWVRQAPGQGLEWMGVIIPILGEAHYERKFQGRLTITMDESTSTAYMELSNLRSEDTAVYYCARERAARGYLDYWGQGTLVTVSS
VL: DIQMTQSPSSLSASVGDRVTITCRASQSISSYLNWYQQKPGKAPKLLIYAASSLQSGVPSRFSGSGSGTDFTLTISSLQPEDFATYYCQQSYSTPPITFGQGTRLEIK
notes: as for B1
B5: MAb16662 (antibody, V domains shown)
VH: EVQLVESGGGLVQPGGSLRLSCTASGFTFSNYAIFWVRQAPGKGLEYVSGISNNGVTKYYADSVRDRFTISRDNSRNTVSIQMDSLRTEDMAVYYCARENWGSDDGFDIWGQGTMVTVSS
VL: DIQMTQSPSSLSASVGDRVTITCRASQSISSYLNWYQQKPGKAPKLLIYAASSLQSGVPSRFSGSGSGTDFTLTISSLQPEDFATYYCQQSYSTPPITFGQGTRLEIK
notes: as for B1
B6: MAb16664 (antibody, V domains shown)
VH: QVQLVQSGTEVKKPGSSVKVSCKASGGTFSTYPINWVRQAPGQGLEWMGGIIPIFGTASYAQKFQGRVAITTDESTSTAYMELNSLRSEDTAVYYCARERPNWGSNDYWGQGTLVTVSS
VL: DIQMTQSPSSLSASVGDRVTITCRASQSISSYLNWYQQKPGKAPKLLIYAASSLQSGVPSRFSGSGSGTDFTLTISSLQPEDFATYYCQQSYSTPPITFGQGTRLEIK
notes: as for B1
B7: MAb16665 (antibody, V domains shown)
VH: QVQLVESGGGVVQPGRSLRLACAASGFTFRSYGMHWVRQAPGKGLEWVAVIWYDGSNKYYTDSVKGRFTISRDNSKNTLYLQMNSLRAEDTAMYYCAIDKWATVTTYLFDYWGQGTLVTVSS
VL: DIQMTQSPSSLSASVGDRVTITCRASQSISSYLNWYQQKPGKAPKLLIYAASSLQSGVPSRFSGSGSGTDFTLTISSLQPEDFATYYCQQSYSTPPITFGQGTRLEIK
notes: as for B1
B8: MAb16666 (antibody, V domains shown)
VH: EVQLVESGGGLVQSGGSLRLSCAASGFTFSRYEMNWVRQAPGKGLEWVAYISNTGTTRDYSDSVKGRFTISRDNAKNSLYLQMSSLRVEDTAVYYCVREKFSGTSDWFDPWGQGTLVTVSS
VL: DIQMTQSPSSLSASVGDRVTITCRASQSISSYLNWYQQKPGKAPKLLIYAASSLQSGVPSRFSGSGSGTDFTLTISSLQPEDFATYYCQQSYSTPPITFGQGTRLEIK
notes: as for B1
B9: MAb16669 (antibody, V domains shown)
VH: EVQLVESGGGLVQPGGSLRLSCAASGFTFSSYAMNWVRQAPGKGLEWVSAISGSGDSTYYTDSVKGRFTISRDNSKNTLYLQMNTLRAEDTAVYYCAKEEIVMLVGATPGWFDPWGQGTLVTVSS
VL: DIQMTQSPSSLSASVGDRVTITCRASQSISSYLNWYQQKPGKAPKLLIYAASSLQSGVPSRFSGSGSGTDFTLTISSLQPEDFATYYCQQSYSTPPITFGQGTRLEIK
notes: as for B1
B10: MAb16673 (antibody, V domains shown)
VH: EVQLVQSGAEVKKPGESLKISCKGSGYSFTSYWIDWVRQMPGKGLEWMGIIYPDDSDTRYSPSFQGQVTMSVDKSISTAYLQWSSLKASDTAIYYCARHERGIVEAGTDYYYYYGMDVWGQGTTVTVSS
VL: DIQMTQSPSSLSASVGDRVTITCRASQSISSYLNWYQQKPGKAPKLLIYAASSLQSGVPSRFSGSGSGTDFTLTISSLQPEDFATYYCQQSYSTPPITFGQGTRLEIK
notes: as for B1

Each binder was assayed against T1, rat GP130 extracellular domain expressed with a C-terminal myc-myc-hexahistidine tag (rGP130-mmH) (rat, UniProt P40190 23-618) (assay: SPR Biacore, mAb captured via anti-hFc, 37 C).
T1 construct: Monomeric; the entry includes the myc-myc-His tag
T1 sequence (P40190 other isoform, or with tags, fused parts or gaps): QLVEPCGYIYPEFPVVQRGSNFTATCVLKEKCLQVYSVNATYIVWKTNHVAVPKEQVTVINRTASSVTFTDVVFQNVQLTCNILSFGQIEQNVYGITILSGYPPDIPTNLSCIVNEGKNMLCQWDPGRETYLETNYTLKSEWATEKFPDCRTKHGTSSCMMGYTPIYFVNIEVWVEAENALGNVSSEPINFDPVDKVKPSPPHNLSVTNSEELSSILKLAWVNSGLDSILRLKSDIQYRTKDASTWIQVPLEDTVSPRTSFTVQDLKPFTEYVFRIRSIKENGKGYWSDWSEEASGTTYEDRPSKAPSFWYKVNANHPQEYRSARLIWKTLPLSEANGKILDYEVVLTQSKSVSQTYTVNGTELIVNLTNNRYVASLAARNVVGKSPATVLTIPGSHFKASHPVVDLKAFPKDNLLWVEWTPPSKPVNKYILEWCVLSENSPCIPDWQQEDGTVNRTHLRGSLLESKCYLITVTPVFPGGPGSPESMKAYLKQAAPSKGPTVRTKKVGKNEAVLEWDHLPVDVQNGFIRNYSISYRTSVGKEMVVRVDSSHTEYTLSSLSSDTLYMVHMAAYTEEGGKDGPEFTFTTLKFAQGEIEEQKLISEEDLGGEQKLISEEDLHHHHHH
Experimental: (§1) Equilibrium dissociation constant (KD) for different GP130 reagents binding to purified anti-GP130 monoclonal antibodies were determined using a real-time surface plasmon resonance based Biacore 4000 biosensor. All binding studies were performed in 10 mM HEPES, 150 mM NaCl, 3 mM EDTA, and 0.05% v/v Surfactant Tween-20, pH 7.4 (HBS-ET) running buffer at 25° C. and 37° C. The Biacore sensor surface was first derivatized by amine coupling with a monoclonal mouse anti-human Fc antibody (GE, #BR-1008-39) to capture anti-GP130 monoclonal antibodies. […] Reagents tagged with “mmH” are monomeric, whereas reagents tagged with “mFc” are dimeric. Thus, for example, “hGP130-mmH” is also referred to as “monomeric human GP130,” and “hGP130-mFc” is also referred to as “dimeric human GP130.”
(§2) The association rate (k a) and dissociation rate (kd) were determined by fitting the real-time binding sensorgrams to a 1:1 binding model with mass transport limitation using Scrubber 2.0c curve-fitting software. Binding dissociation equilibrium constant (KD) and dissociative half-life (t ½) were calculated from the kinetic rates as: […]

Row | Binder | 100 nM Ag Bound (RU)
1 | B1 | 0
2 | B2 | 0
3 | B3 | 0
4 | B4 | 1
5 | B5 | 1
6 | B6 | 0
7 | B7 | -1
8 | B8 | 1
9 | B9 | -2
10 | B10 | 2

The binders below were run against T2, mouse GP130 extracellular domain expressed with a C-terminal myc-myc-hexahistidine tag (mGP130-mmH) (mouse, UniProt Q00560 23-617) (assay: SPR Biacore, mAb captured via anti-hFc, 37 C).
T2 construct: Monomeric; the entry includes the myc-myc-His tag
T2 sequence (Q00560 other isoform, or with tags, fused parts or gaps): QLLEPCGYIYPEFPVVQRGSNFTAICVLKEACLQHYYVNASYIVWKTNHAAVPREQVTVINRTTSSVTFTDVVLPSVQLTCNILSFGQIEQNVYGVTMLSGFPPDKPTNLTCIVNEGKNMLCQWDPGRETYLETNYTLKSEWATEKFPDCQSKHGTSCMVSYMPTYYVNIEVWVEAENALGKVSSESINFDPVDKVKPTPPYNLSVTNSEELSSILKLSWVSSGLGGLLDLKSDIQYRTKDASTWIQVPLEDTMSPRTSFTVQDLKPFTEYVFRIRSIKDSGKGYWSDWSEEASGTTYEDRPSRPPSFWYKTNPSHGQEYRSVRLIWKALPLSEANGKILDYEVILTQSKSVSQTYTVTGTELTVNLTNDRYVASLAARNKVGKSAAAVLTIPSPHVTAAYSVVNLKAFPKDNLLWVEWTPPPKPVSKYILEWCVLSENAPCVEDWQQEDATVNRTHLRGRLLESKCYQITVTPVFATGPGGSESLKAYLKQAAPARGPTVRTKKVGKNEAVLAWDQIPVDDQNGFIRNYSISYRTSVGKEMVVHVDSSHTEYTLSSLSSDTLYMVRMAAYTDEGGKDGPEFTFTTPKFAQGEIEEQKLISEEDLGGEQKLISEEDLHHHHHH
Experimental: as §1, §2

Row | Binder | 100 nM Ag Bound (RU) | binding result
11 | B1 | 0 | –
12 | B2 | -1 | –
13 | B3 | 0 | no binding (tested: 100 nM)
14 | B4 | 1 | no binding (tested: 100 nM)
15 | B5 | 1 | –
16 | B6 | 1 | no binding (tested: 100 nM)
17 | B7 | -1 | –
18 | B8 | 0 | no binding (tested: 100 nM)
19 | B9 | -1 | –
20 | B10 | 1 | no binding (tested: 100 nM)

Molecular target: T3, human GP130 extracellular domain expressed with a C-terminal mouse IgG2a Fc tag (hGP130-mFc) (human)
T3 construct: also called dimeric human GP130
T3 chain: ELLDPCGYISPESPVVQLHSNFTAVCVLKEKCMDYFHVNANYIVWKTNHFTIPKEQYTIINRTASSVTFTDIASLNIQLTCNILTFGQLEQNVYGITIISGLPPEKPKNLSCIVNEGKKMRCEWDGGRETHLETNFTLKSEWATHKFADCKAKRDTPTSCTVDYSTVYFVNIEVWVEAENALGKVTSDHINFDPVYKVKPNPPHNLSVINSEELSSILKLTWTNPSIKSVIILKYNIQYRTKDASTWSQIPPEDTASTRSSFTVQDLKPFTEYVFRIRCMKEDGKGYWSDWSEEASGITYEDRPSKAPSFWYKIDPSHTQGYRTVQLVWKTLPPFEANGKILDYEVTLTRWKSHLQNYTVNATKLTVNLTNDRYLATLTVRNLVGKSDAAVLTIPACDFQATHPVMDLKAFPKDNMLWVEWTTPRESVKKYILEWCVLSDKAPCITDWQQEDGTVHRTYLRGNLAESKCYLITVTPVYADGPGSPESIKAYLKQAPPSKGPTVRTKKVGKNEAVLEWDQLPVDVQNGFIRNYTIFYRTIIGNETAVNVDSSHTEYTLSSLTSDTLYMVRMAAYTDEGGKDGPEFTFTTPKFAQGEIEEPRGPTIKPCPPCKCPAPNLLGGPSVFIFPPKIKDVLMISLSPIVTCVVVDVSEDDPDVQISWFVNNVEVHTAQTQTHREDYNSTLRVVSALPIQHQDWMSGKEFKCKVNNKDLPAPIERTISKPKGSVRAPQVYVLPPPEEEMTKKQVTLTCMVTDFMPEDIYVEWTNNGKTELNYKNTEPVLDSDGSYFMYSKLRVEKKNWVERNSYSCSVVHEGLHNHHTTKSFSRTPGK
Assay: SPR Biacore, mAb captured via anti-hFc, 37 C
Experimental: as §1, §2

Row | Binder | 100 nM Ag Bound (RU) | Kd [nM] | koff [s⁻¹] | kon [M⁻¹ s⁻¹] | t½ [min]
21 | B1 | 136 | 1.2 | 0.000167 | 139000 | 69
22 | B2 | 246 | 0.65 | 0.000323 | 496000 | 36
23 | B3 | 123 | 1.7 | 0.000297 | 175000 | 39
24 | B4 | 227 | 0.0249 | 4.76e-05 | 1.91e+06 | 243
25 | B5 | 114 | 4.15 | 0.00265 | 639000 | 4
26 | B6 | 37 | 0.0815 | 0.000109 | 1.33e+06 | 106
27 | B7 | 172 | 3.92 | 0.00256 | 653000 | 5
28 | B8 | 285 | 0.298 | 0.00036 | 1.21e+06 | 32
29 | B9 | 59 | 5.85 | 0.00038 | 65100 | 30
30 | B10 | 199 | 0.457 | 0.000313 | 684000 | 37

Each binder was assayed against T1, rat GP130 extracellular domain … (assay: SPR Biacore, mAb captured via anti-hFc, 25 C).
Experimental: as §1, §2

Row | Binder | 100 nM Ag Bound (RU) | binding result
31 | B1 | 1 | no binding (tested: 100 nM)
32 | B2 | 0 | no binding (tested: 100 nM)
33 | B3 | -1 | –
34 | B4 | 2 | no binding (tested: 100 nM)
35 | B5 | -1 | –
36 | B6 | 0 | no binding (tested: 100 nM)
37 | B7 | 0 | –
38 | B8 | 1 | no binding (tested: 100 nM)
39 | B9 | -2 | –
40 | B10 | 0 | no binding (tested: 100 nM)

The binders below were run against T2, mouse GP130 extracellular domain … (assay: SPR Biacore, mAb captured via anti-hFc, 25 C).
Experimental: as §1, §2

Row | Binder | 100 nM Ag Bound (RU) | binding result
41 | B1 | 0 | no binding (tested: 100 nM)
42 | B2 | 1 | –
43 | B3 | 0 | –
44 | B4 | 1 | –
45 | B5 | -1 | –
46 | B6 | 0 | –
47 | B7 | 0 | –
48 | B8 | 1 | –
49 | B9 | 0 | –
50 | B10 | 0 | –

Molecular target: T3, human GP130 extracellular domain …
Assay: SPR Biacore, mAb captured via anti-hFc, 25 C
Experimental: as §1, §2

Row | Binder | 100 nM Ag Bound (RU) | Kd [nM] | koff [s⁻¹] | kon [M⁻¹ s⁻¹] | t½ [min]
51 | B1 | 91 | 1.92 | 0.000113 | 58800 | 102
52 | B2 | 189 | 0.647 | 0.00015 | 232000 | 77
53 | B3 | 98 | 1.68 | 0.000132 | 78100 | 88
54 | B4 | 186 | 0.0366 | 6.28e-05 | 1.72e+06 | 184
55 | B5 | 90 | 0.772 | 0.000479 | 620000 | 24
56 | B6 | 26 | 0.116 | 0.000354 | 3.05e+06 | 33
57 | B7 | 158 | 2.72 | 0.00109 | 399000 | 11
58 | B8 | 253 | 0.12 | 0.000137 | 1.14e+06 | 85
59 | B9 | 40 | 8.21 | 0.000241 | 29300 | 48
60 | B10 | 169 | 0.173 | 9.66e-05 | 560000 | 120
